Measured values published in US20240147984A1 (SYNKLINO A S, published 2024).

How the values were obtained:
Experiment in all cases: cell-based or functional assay
CX3CR1 = molecular target: T1, CX3CR1 (human, UniProt P49238 1-355)
T1 sequence: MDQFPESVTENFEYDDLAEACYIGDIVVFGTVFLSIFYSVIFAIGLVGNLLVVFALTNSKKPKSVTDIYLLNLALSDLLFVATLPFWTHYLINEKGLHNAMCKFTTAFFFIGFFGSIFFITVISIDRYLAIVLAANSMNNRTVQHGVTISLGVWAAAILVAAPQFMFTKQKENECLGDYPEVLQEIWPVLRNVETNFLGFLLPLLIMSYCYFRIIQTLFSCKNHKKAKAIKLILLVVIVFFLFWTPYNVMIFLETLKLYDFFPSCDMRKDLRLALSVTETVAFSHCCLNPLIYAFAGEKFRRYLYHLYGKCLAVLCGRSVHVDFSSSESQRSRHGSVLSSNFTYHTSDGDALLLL

US28 [1] = molecular target: T2, US28 (human cytomegalovirus, UniProt P69332 1-354)
T2 sequence: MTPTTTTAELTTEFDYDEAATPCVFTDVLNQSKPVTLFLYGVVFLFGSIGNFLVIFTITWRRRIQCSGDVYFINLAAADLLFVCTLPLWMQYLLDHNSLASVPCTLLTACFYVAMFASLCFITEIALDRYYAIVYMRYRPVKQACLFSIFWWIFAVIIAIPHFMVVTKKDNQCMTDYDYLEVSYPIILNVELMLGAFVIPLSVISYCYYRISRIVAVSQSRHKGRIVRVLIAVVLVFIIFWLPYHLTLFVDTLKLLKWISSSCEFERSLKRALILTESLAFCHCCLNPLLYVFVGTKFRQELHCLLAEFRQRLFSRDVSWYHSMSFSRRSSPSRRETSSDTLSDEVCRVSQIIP

US28 [2] = molecular target: T2, US28; remark: listed apart in the source

B1: SYN001 (other)
chain: MQHHGVTKCNITCSKMTSKIPVALLIHYQQNQASCGKRAIILETRQHRLACADPKEQWVKDAMQHLDRQAAALTRNRQPRGWEQLEQSGYPVQRLVALYLAARLSWNQVDQVIRNALASPGSGGDLGEAIREQPEQARLALTLAAAESERFVRQGTGNDEAGAASGPADSGDALLERNYPTGAEFLGDGGDISFSTRGTQNWTVERLLQAHRQLEERGYVFVGYHGTFLEAAQSIVFGGVRARSQDLDAIWRGFYIAGDPALAYGYAQDQEPDARGRIRNGALLRVYVPRSSLPGFYRTGLTLAAPEAAGEVERLIGHPLPLRLDAITGPEEEGGRLETILGWPLAERTVVIPSAIPTDPRNVGGDLDPSSIPDKEQAISALPDYASQPGKPPKDE
Log IC50, cell killing assay (CX3CR1): -7.82 log IC50; concentration unit not printed
Log IC50, cell killing assay (US28 [1]): -10.7 log IC50; concentration unit not printed
Selectivity Ratio US28/CX3CR1 (cell killing IC50) (US28 [1]): 718 ratio
EC50 (log), potency assay; SYN001 1 mg/L, 0 min in perfusate at 37 C (US28 [2]): -9.95 log EC50; concentration unit not printed
EC50 (log), potency assay; SYN001 1 mg/L, 15 min in perfusate at 37 C (US28 [2]): -9.95 log EC50; concentration unit not printed
EC50 (log), potency assay; SYN001 1 mg/L, 180 min in perfusate at 37 C (US28 [2]): -10 log EC50; concentration unit not printed
EC50 (log), potency assay; SYN001 1 mg/L, 300 min in perfusate at 37 C (US28 [2]): -9.93 log EC50; concentration unit not printed
